In patent US20230201439A1:

Key:
[1] = target: Nucleosomes (cfDNA measured by Nu.Q H3.1 assay) in porcine liver perfusion solution (porcine); test: batch depletion: porcine liver perfusate with 10% v/v antibody-agarose matrix, 60 min, 37 C; what is left is measured by Nu.Q H3.1 assay; sample 2, before incubation 73536 ng/ml
[2] = target: Nucleosomes (cfDNA measured by Nu.Q H3.1 assay) in porcine liver perfusion solution (porcine); test: batch depletion: porcine liver perfusate with 10% v/v antibody-agarose matrix, 60 min, 37 C; what is left is measured by Nu.Q H3.1 assay; sample 1, before incubation 92466 ng/ml
[3] = target: Nucleosomes (cfDNA measured by Nu.Q H3.1 assay) in porcine liver perfusion solution (porcine); test: batch depletion: porcine liver perfusate with 10% v/v antibody-agarose matrix, 60 min, 37 C; what is left is measured by Nu.Q H3.1 assay; sample 3, before incubation 87643 ng/ml

**Q.** “Antibody against histone H3.1 (Merck Millipore MABE952), coupled to NHS-activated Sepharose 4 Fast Flow” was tested. Which cfDNA quantity in perfusate after incubation with the matrix (Nu.Q H3 Assay) [1] did it give?
**A.** 24300 ng/mL

**Q.** And the cfDNA quantity in perfusate after incubation with the matrix (Nu.Q H3 Assay) [2]?
**A.** 38800 ng/mL

**Q.** What about the cfDNA quantity in perfusate after incubation with the matrix (Nu.Q H3 Assay) [3] of the same substance?
**A.** 29800 ng/mL
